Laboratory results taken from patent US10787647B2, “HSD17B13 variants and uses thereof” (Regeneron Pharmaceuticals, Inc., priority 2017, dated 2020).

What was measured:
[1] = target: T1, recombinant human HSD17B13 (Homo sapiens, UniProt Q7Z5P4); experiment: Substrate screening of steroid and bioactive lipid libraries against purified recombinant HSD17B13 (NADH-Glo); type: biochemical; conditions: putative substrate screen with recombinant protein
T1 sequence (Q7Z5P4 20-300): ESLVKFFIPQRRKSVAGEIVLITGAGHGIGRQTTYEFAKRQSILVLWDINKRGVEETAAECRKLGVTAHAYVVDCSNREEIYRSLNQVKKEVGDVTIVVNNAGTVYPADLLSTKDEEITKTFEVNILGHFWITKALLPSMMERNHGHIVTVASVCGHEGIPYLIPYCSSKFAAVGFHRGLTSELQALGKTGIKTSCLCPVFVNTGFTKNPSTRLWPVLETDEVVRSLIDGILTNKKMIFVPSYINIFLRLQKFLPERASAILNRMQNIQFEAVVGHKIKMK
Method: Reactions were performed in a final volume of 40 μL of assay buffer (0.2 M Tris-HCl, pH 7.5) which contained 500 μM NAD^±, 5 μM bioactive lipid or 50 μM steroid (all in a final concentration of 5% DMSO), and 100 ng recombinant human HSD17B13. Reactions were incubated for 3 hours, at 23° C., after which an equal volume NADH-Glo Detection Reagent (Promega) was added. Following a 1 hour incubation at 23° C., the relative light units (RLUs) were measured on an Envision Plate Reader (Perkin Elmer). Raw RLU values were normalized as percent of control (50 μM estradiol) following subtraction of negative control (5% DMSO) using the following formula: Percent of control (POC)=100×(Sample (RLU)−Negative CTRLaverage)/(Positive CTRLaverage−Negative CTRLaverage).

HepG2 cells = experiment: Quantification of intracellular triglyceride content in stable cell lines; type: cell-based, human; conditions: for intracellular triglyceride content versus GFP control: cell lines overexpressing isoform, oleic acid treatment
Method: HepG2 cells were cultured in Eagle's Minimum Essential Medium supplemented with 10% fetal bovine serum. HSD17B13 transcripts A and D were sub-cloned into Myc-DDK backbone lentivirus constructs, and lentivirus were generated. HepG2 cells were infected with lentivirus carrying the HSD17B13 transcripts. Stable cell lines expressing each HSD17B13 transcript were selected with 1-3 mg/ml Geneticin G-418 sulfate in complete culture medium for two weeks. Following fixation, HSD17B13 isoforms were detected with mouse anti-Myc antibody. Lipid droplets were labeled with BODIPY FL dye (Sigma). Secondary antibodies for immunofluorescence were Alexa Fluor 488 donkey anti-rabbit IgG and Alexa Fluor 594 donkey anti-mouse IgG (Jackson ImmunoResearch).
The triglyceride (TG) content from the stable cells was determined using a TG quantification kit (Abcam). In the assay, TG are converted to free fatty acids and glycerol. The glycerol is then oxidized to generate a product which is quantified (spectrophotometry at λ=570 nm).

HSD17B13 = target: T2, HSD17B13 (Homo sapiens, UniProt Q7Z5P4); experiment: In vitro enzymatic activity of recombinant HSD17B13 isoforms A and D (NADH production, NAD(P)H-Glo); type: biochemical
T2 construct: Transcript A, which encodes the full-length 300 amino acid protein; 10x His (C); host or cells: E. coli
T2 sequence (Q7Z5P4 with tags, fused parts or gaps): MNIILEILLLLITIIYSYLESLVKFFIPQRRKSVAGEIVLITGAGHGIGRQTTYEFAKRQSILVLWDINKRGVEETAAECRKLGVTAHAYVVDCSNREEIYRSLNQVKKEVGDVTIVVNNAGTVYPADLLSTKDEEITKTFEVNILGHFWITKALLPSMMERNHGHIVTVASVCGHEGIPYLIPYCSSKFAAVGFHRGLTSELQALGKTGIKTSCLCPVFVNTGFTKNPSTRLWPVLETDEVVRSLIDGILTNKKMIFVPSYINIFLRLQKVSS
Method: Recombinant human HSD17B13 protein was purified from E. coli (Genscript) transformed with plasmid DNA harboring HSD17B13 transcript A or transcript D. The HSD17B13 variants contained a 10× His tag at the C terminus and were purified from soluble fraction using a Ni2^+ affinity purification. Enzymatic activity was determined through measurement of NADH production using the NAD(P)H-Glo Detection System (Promega). Reactions were performed for 3 hours at 25° C. in 0.2 M Tris-HCl, pH 7.5, 0.5 mM NAD^+, 75 μM of substrate (Sigma) and 500 ng purified enzyme in a final volume of 100 μL. After incubation, 20 μL of the reaction was combined with 20 μL luciferase reagent (Promega), incubated at room temperature for 1 hour and read on an Envision Plate Reader (Perkin Elmer).

[2] = test system: HEK293 cells overexpressing HSD17B13 transcript A, transcript D or GFP; experiment: Cell-based estradiol to estrone conversion in culture media (LC-MS); design: species or system human; conditions: overexpressed in HEK293 cells, estradiol 1 μM, 48 hours
Method: HEK293 cells overexpressing HSD17B13 transcript A, transcript D or green fluorescent protein (GFP, control) were used to investigate the activity of HSD17B13 against estradiol in a cell-based assay. Estradiol (1 μM) was fed to each cell type. After 48 hours, the media was collected and the concentration of estradiol and its converted product estrone were identified and quantified by LC-MS.

CCCCCC(O)C=CC=CCCCCCCCC(=O)O (stereo not drawn) [13-Hydroxyoctadecadienoic acid]
enzymatically converted by HSD17B13 (oxidation of a hydroxyl to a ketone group) [1]: enzymatically converted

C[C@]12CC[C@@H]3c4ccc(O)cc4CC[C@H]3[C@@H]1CC[C@@H]2O [estradiol, 17-beta estradiol]
enzymatically converted by HSD17B13 (oxidation of a hydroxyl to a ketone group) [1]: enzymatically converted

CCCCC/C=C\C[C@@H](O)/C=C/C=C/C=C\[C@@H](O)CCCC(=O)O [leukotriene B4]
enzymatically converted by HSD17B13 (oxidation of a hydroxyl to a ketone group) [1]: enzymatically converted

CCCCCCCC/C=C\CCCCCCCC(=O)O [oleic acid, reference compound]
triglyceride (TG) content (HepG2 cells; increasing concentrations of oleic acid, HepG2 GFP control and HSD17B13 Transcript A and D cell lines): increased triglyceride (TG) content

B1: HSD17B13 Isoform D: HSD17B13 Protein Isoform D, SEQ ID NO: 15; prematurely truncated protein encoded by Transcript D of the rs72613567 variant (protein, listed as Homo sapiens)
chain: MNIILEILLLLITIIYSYLESLVKFFIPQRRKSVAGEIVLITGAGHGIGRQTTYEFAKRQSILVLWDINKRGVEETAAECRKLGVTAHAYVVDCSNREEIYRSLNQVKKEVGDVTIVVNNAGTVYPADLLSTKDEEITKTFEVNILGHFWITKALLPSMMERNHGHIVTVASVCGHEGIPYLIPYCSSKFAAVGFHRGLTSELQALGKTGIKTSCLCPVFVNTGFTKNPSTRLWPVLETDEVVRSLIDGILTNKKMIFVPSYINIFLRLQKVSS
modifications: (1)..(70) Region Encoded by Exon 1; (71)..(106) Region Encoded by Exon 2; (107)..(150) Region Encoded by Exon 3; (151)..(185) Region Encoded by Exon 4; (186)..(232) Region Encoded by Exon 5; (233)..(271) Region Encoded by Exon 6v2; (272)..(274) Region Encoded by Exon 7
activity towards the three substrates (HSD17B13; estradiol, leukotriene B4, 13-Hydroxyoctadecadienoic acid, recombinant protein in vitro): greatly reduced activity | activity towards estradiol in vitro compared to HSD17B13 isoform A (HSD17B13; estradiol, recombinant protein, NAD cofactor): greatly reduced activity | enzymatic activity of the corresponding values for Isoform A (HSD17B13; substrates 17-beta estradiol, leukotriene B4, 13(S)-HODE, recombinant protein): < 10% | conversion of estradiol (substrate) to estrone (product) measured in the culture media [2]: did not show much conversion | conversion of estradiol (substrate) to estrone (product) measured in the culture media ([2]; listed as HSD17B13 isoform D): greatly reduced activity | intracellular triglyceride content versus GFP control (HepG2 cells): No differences

B2: HSD17B13 Isoform A: HSD17B13 Protein Isoform A, SEQ ID NO: 12; full-length 300 amino acid protein encoded by Transcript A (protein, listed as Homo sapiens)
chain: MNIILEILLLLITIIYSYLESLVKFFIPQRRKSVAGEIVLITGAGHGIGRQTTYEFAKRQSILVLWDINKRGVEETAAECRKLGVTAHAYVVDCSNREEIYRSLNQVKKEVGDVTIVVNNAGTVYPADLLSTKDEEITKTFEVNILGHFWITKALLPSMMERNHGHIVTVASVCGHEGIPYLIPYCSSKFAAVGFHRGLTSELQALGKTGIKTSCLCPVFVNTGFTKNPSTRLWPVLETDEVVRSLIDGILTNKKMIFVPSYINIFLRLQKFLPERASAILNRMQNIQFEAVVGHKIKMK
modifications: (1)..(70) Region Encoded by Exon 1; (71)..(106) Region Encoded by Exon 2; (107)..(150) Region Encoded by Exon 3; (151)..(185) Region Encoded by Exon 4; (186)..(232) Region Encoded by Exon 5; (233)..(271) Region Encoded by Exon 6v1; (272)..(300) Region Encoded by Exon 7
conversion of estradiol (substrate) to estrone (product) measured in the culture media [2]: robust conversion | intracellular triglyceride content versus GFP control (HepG2 cells): No differences
